Laboratory results as given in patent US20250339569A1 (3B PHARMACEUTICALS, published 2025).
Starred links: 1 amine or outer side, 2 acyl side, 3 side chain; linkers in the order of their positions; H or OH if unused. Positions of bridges follow the written chain, without caps; N, C: chain ends. Non-standard residues stand in square brackets, D forms with d. Primed or numbered codes have the meaning given here. No end group written: not given here. *: point of attachment. Aph(SaPr) = 4-amino-L-phenylalanine, ring amine acylated by 3-sulfamoylpropanoic acid, NS(=O)(=O)CCC(=O)Nc1ccc(C[C@H](N[*:1])C(=O)[*:2])cc1; Ttds(4) = 1,13-diamino-4,7,10-trioxatridecan-succinamic acid spacer, O=C(CCC(=O)[*:2])NCCCOCCOCCOCCCN[*:1]; Ttds = 1,13-diamino-4,7,10-trioxatridecan-succinamic acid spacer, NCCCOCCOCCOCCCNC(=O)CCC(=O)*; Phe(3-NHCO(CH2)3SO2NH2) = N[C@@H](Cc1cccc(NC(=O)CCCS(N)(=O)=O)c1)C(=O)O; APAc″ = 2-(4-(amino)piperidin-1-yl)acetic acid, NC1CCN(CC(=O)*)CC1; DOTA = O=C(O)CN1CCN(CC(=O)O)CCN(CC(=O)*)CCN(CC(=O)O)CC1; PPAc = 4-carboxymethyl piperazine linker; Desaminotyrosyl = O=C(CCc1ccc(O)cc1)*; mXylylene = c1cc(C[*:1])cc(C[*:2])c1; tBuAla = CC(C)(C)C[C@H](N)C(=O)O; Tic = O=C(O)[C@@H]1Cc2ccccc2CN1; Pen = CC(C)(S)[C@H](N)C(=O)O; Tle = CC(C)(C)[C@H](N)C(=O)O; 3Amb = NCc1cccc(C(=O)O)c1; PPAc″ = not defined here; Cmp = not defined here; Dap = NC[C@H](N)C(=O)O; Rni = not defined here

Columns and labels:
[1] = target: human carbonic anhydrase 9 (CAIX) (human, UniProt Q16790 38-459); assay: FACS competition on HT-29 cells against tracer 3BP-2776; pIC50 category B = pIC50 7.1-8.0
Description: (§1) CAIX-expressing human HT-29 colorectal cancer cells (DSMZ, RRID: CVCL_0320) were cultured in McCoys's 5A modified medium (Biochrom, #F1015) including 10% fetal calf serum (FCS), 2 mM L-glutamine, 100 U/ml penicillin and 100 μg/mL streptomycin. Cells were detached with Accutase (Biolegend, #423201) and washed in FACS buffer (PBS including 1% FCS). Cells were diluted in FACS buffer to a final concentration of 500.000 cells per ml. 200 μL of the cell suspension were transferred to a u-shaped non-binding 96-well plate (Greiner) and cells were washed in ice-cold FACS buffer.
(§2) When biotinylated compounds were used an additional incubation step with 1 μg/mL APC-Streptavidin (Miltenyi; #130-106-791) in 50 μL FACS buffer for 30 minutes on ice was performed.
(§3) Cells were washed twice with ice-cold FACS buffer and analyzed in an Attune NxT flow cytometer (Thermo Fisher). Median fluorescence intensities (MFI) of the APC/Cy5-channel were calculated by Attune NxT software.

[2] = target: T1, Fc-fusion protein of human carbonic anhydrase IX (human, UniProt Q16790 38-414); assay: SPR, captured hCAIX-Fc; pKD category A: >8.0
[3] = target: T1, Fc-fusion protein of human carbonic …; assay: SPR, captured hCAIX-Fc; t1/2 category D: <=2.0 min
Description: Stock solutions of test compounds were prepared by dissolving each compound in DMSO. DMSO stock solution were diluted 1:1000 in Running Buffer without DMSO. […] SPR binding analyses were performed in Single Cycle Kinetic (SCK) mode at 25° C.
For each test compound, SPR raw data in the form of resonance units (RU) were plotted as sensorgrams using the Biacore™ T200 control software. The signal from the blank sensorgram was subtracted from that of the test compound sensorgram (blank corrected). The blank corrected sensorgram was corrected for baseline drift by subtracting the sensorgram of a SCK run without the test compound (running buffer only). […] Raw data and fit results were imported as text files in IDBS. The pKD value (negative decadic logarithm of dissociation constant) was calculated in the IDBS excel template.

[4] = target: T1, Fc-fusion protein of human carbonic …; assay: SPR, captured hCAIX-Fc; t1/2 category A: >15.0 min
[5] = target: human carbonic anhydrase IX (CAIX) (human, UniProt Q16790 38-459); assay: FACS competition, HT-29 cells, tracer 3BP-2776; pIC50 category A: >8.0
Description: as §1, §2, §3

pIC50 [1] [pic50] | pKD [2] [pkd] | t1/2 (half-life of the complex, SPR) [3] [min] | t1/2 (half-life of the complex, SPR) [4] [min] | pIC50 [5] [pic50] | Binder
– | > 8 | – | > 15 | > 8 | {DOTA-PPAc}-ECE[dP]D[Phe(3-NHCO(CH2)3SO2NH2)]LTW[Dap]C-NH2 (lactam 1-10; linker 2-11 via mXylylene) [3BP-4502]
– | > 8 | ≤ 2 | – | – | {DOTA-3Amb}-DCE[dP]DWLTW[Dap]C-NH2 (lactam 10-1; linker 2-11 via mXylylene; SMILES CC(C)C[C@@H]1NC(=O)[C@H](Cc2c[nH]c3ccccc23)NC(=O)[C@H](CC(=O)O)NC(=O)[C@H]2CCCN2C(=O)[C@H](CCC(=O)O)NC(=O)[C@@H]2CSCc3cccc(c3)CSC[C@@H](C(N)=O)NC(=O)[C@H](CNC(=O)C[C@H](NC(=O)c3cccc(CNC(=O)CN4CCN(CC(=O)O)CCN(CC(=O)O)CCN(CC(=O)O)CC4)c3)C(=O)N2)NC(=O)[C@H](Cc2c[nH]c3ccccc23)NC(=O)[C@H]([C@@H](C)O)NC1=O) [3BP-4260]
– | > 8 | ≤ 2 | – | – | DCE[dP]DWLTW[Dap]C-NH2 (lactam 1-10; linker 2-11 via mXylylene; not fully specified (N-terminus); also: indium complexed by DOTA) [3BP-4338]
– | > 8 | – | > 15 | > 8 | {DOTA-PPAc}-ECE[dP]D[Aph(SaPr)]LTW[Dap]C-NH2 (lactam 1-10; linker 2-11 via mXylylene) [3BP-4504]
– | > 8 | – | > 15 | > 8 | {DOTA}-ECE[dP]D[Aph(SaPr)]LTW[Dap]C-NH2 (lactam 1-10; linker 2-11 via mXylylene; SMILES CC(C)C[C@@H]1NC(=O)[C@H](Cc2ccc(NC(=O)CCS(N)(=O)=O)cc2)NC(=O)[C@H](CC(=O)O)NC(=O)[C@H]2CCCN2C(=O)[C@H](CCC(=O)O)NC(=O)[C@@H]2CSCc3cccc(c3)CSC[C@@H](C(N)=O)NC(=O)[C@H](CNC(=O)CC[C@H](NC(=O)CN3CCN(CC(=O)O)CCN(CC(=O)O)CCN(CC(=O)O)CC3)C(=O)N2)NC(=O)[C@H](Cc2c[nH]c3ccccc23)NC(=O)[C@H]([C@@H](C)O)NC1=O) [3BP-4505]
– | – | – | – | > 8 | {DOTA-PPAc″}-YCE[dP]D[Phe(3-NHCO(CH2)3SO2NH2)][tBuAla]TWSC-NH2 (linker 2-11 via mXylylene; reading uncertain) [3BP-4449]
– | > 8 | ≤ 2 | – | – | {DOTA-Cmp}-DCE[dP]DWLTW[Dap]C-NH2 (lactam 10-1; linker 2-11 via mXylylene; reading uncertain) [3BP-4259]
– | > 8 | – | > 15 | > 8 | {DOTA-PPAc″}-YCE[dP]D[Phe(3-NHCO(CH2)3SO2NH2)]LTWSC-NH2 (linker 2-11 via mXylylene; reading uncertain) [3BP-4448]
– | > 8 | – | > 15 | > 8 | {DOTA-Rni}-YCE[dP]D[Phe(3-NHCO(CH2)3SO2NH2)]LTWSC-NH2 (linker 2-11 via mXylylene; reading uncertain) [3BP-4455]
– | – | – | – | > 8 | {DOTA-PPAc″}-RCE[dP]D[Phe(3-NHCO(CH2)3SO2NH2)]LTWSC-NH2 (linker 2-11 via mXylylene; reading uncertain) [3BP-4451]
– | – | – | – | > 8 | {DOTA-PPAc″}-SCE[dP]D[Phe(3-NHCO(CH2)3SO2NH2)]LTWSC-NH2 (linker 2-11 via mXylylene; reading uncertain) [3BP-4450]
– | > 8 | ≤ 2 | – | – | {DOTA-PPAc}-DCE[dP]DWLTW[Dap]C-NH2 (lactam 10-1; linker 2-11 via mXylylene) [3BP-4255]

The next lines start with the binder.

Binder | pIC50 [1] [pic50] | pKD [2] [pkd] | t1/2 (half-life of the complex, SPR) [3] [min] | t1/2 (half-life of the complex, SPR) [4] [min] | pIC50 [5] [pic50]
Desaminotyrosyl-CE[dP]DWLTWSC-NH2 (linker 1-10 via 3MeBn, also called 4OHPhp-[Cys(3MeBn)-Glu-pro-Asp-Trp-Leu-Thr-Trp-Ser-Cys]-NH2) [3BP-3731] | 7.1 to 8 | – | – | – | –
{DOTA-Ttds}-VYCEGDWLTWQC-NH2 (linker 3-12 via mXylylene) [3BP-2959] | – | > 8 | ≤ 2 | – | –
Ac-[dV]YCEGDWLTWQC-NH2 (linker 3-12 via mXylylene; SMILES CC(=O)N[C@@H](C(=O)N[C@@H](Cc1ccc(O)cc1)C(=O)N[C@H]1CSCc2cccc(c2)CSC[C@@H](C(N)=O)NC(=O)[C@H](CCC(N)=O)NC(=O)[C@H](Cc2c[nH]c3ccccc23)NC(=O)[C@H]([C@@H](C)O)NC(=O)[C@H](CC(C)C)NC(=O)[C@H](Cc2c[nH]c3ccccc23)NC(=O)[C@H](CC(=O)O)NC(=O)CNC(=O)[C@H](CCC(=O)O)NC1=O)C(C)C) [3BP-3043] | 7.1 to 8 | – | – | – | –
Ac-V[Tic]CE[dP]DWLTWSC-NH2 (linker 3-12 via mXylylene; SMILES CC(=O)N[C@H](C(=O)N1Cc2ccccc2C[C@H]1C(=O)N[C@H]1CSCc2cccc(c2)CSC[C@@H](C(N)=O)NC(=O)[C@H](CO)NC(=O)[C@H](Cc2c[nH]c3ccccc23)NC(=O)[C@H]([C@@H](C)O)NC(=O)[C@H](CC(C)C)NC(=O)[C@H](Cc2c[nH]c3ccccc23)NC(=O)[C@H](CC(=O)O)NC(=O)[C@H]2CCCN2C(=O)[C@H](CCC(=O)O)NC1=O)C(C)C, also called Ac-Val-Tic-[Cys(3MeBn)-Glu-pro-Asp-Trp-Leu-Thr-Trp-Ser-Cys]-NH2) [3BP-3572] | 7.1 to 8 | – | – | – | –
{DOTA-APAc″}-CE[dP]DWLTWSC-NH2 (linker 1-10 via mXylylene) [3BP-3858] | – | > 8 | ≤ 2 | – | –
Ac-VYCEGDW[Tle]TWQC-NH2 (linker 3-12 via mXylylene; SMILES CC(=O)N[C@H](C(=O)N[C@@H](Cc1ccc(O)cc1)C(=O)N[C@H]1CSCc2cccc(c2)CSC[C@@H](C(N)=O)NC(=O)[C@H](CCC(N)=O)NC(=O)[C@H](Cc2c[nH]c3ccccc23)NC(=O)[C@H]([C@@H](C)O)NC(=O)[C@H](C(C)(C)C)NC(=O)[C@H](Cc2c[nH]c3ccccc23)NC(=O)[C@H](CC(=O)O)NC(=O)CNC(=O)[C@H](CCC(=O)O)NC1=O)C(C)C, also called Ac-Val-Tyr-[Cys(3MeBn)-Glu-Gly-Asp-Trp-Tle-Thr-Trp-Gln-Cys]-NH2) [3BP-3066] | 7.1 to 8 | – | – | – | –
Ac-VYCEGDWLTWQC[Ttds(4)][dK](DOTA)-NH2 (linker 3-12 via mXylylene; SMILES CC(=O)N[C@H](C(=O)N[C@@H](Cc1ccc(O)cc1)C(=O)N[C@H]1CSCc2cccc(c2)CSC[C@@H](C(=O)NCCCOCCOCCOCCCNC(=O)CCC(=O)N[C@H](CCCCNC(=O)CN2CCN(CC(=O)O)CCN(CC(=O)O)CCN(CC(=O)O)CC2)C(N)=O)NC(=O)[C@H](CCC(N)=O)NC(=O)[C@H](Cc2c[nH]c3ccccc23)NC(=O)[C@H]([C@@H](C)O)NC(=O)[C@H](CC(C)C)NC(=O)[C@H](Cc2c[nH]c3ccccc23)NC(=O)[C@H](CC(=O)O)NC(=O)CNC(=O)[C@H](CCC(=O)O)NC1=O)C(C)C) [3BP-2949] | 7.1 to 8 | – | – | – | –
Ac-VY[Pen]EGDWLTWQC-NH2 (linker 3-12 via mXylylene; SMILES CC(=O)N[C@H](C(=O)N[C@@H](Cc1ccc(O)cc1)C(=O)N[C@@H]1C(=O)N[C@@H](CCC(=O)O)C(=O)NCC(=O)N[C@@H](CC(=O)O)C(=O)N[C@@H](Cc2c[nH]c3ccccc23)C(=O)N[C@@H](CC(C)C)C(=O)N[C@@H]([C@@H](C)O)C(=O)N[C@@H](Cc2c[nH]c3ccccc23)C(=O)N[C@@H](CCC(N)=O)C(=O)N[C@H](C(N)=O)CSCc2cccc(c2)CSC1(C)C)C(C)C) [3BP-3063] | 7.1 to 8 | – | – | – | –
